The values below are quoted from earlier work in article PMC2688729.

For this data set, the target named is thrombomodulin (Homo sapiens) (UniProt P07204).

On to thrombin (from UniProt P00734), for which the Kd – broadly, a measure of binding affinity in units of concentration – was less than 1 nM.
